Measured values from patent US11814435B2, “Therapeutic antibodies and their uses” (PFIZER INC., priority 2015, dated 2023).

T1: hBCMA (human BCMA) (Homo sapiens, UniProt Q02223)
T1 sequence (Q02223 1-184): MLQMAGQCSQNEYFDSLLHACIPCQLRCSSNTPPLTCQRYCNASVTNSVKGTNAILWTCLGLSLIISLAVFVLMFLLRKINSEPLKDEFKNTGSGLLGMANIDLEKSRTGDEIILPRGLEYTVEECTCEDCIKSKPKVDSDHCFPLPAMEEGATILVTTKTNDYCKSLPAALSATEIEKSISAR

B1: COMBO_Rd4_0.6 nM_C17: anti-BCMA antibody (antibody, V domains shown)
VH: EVQLLESGGGLVQPGGSLRLSCAASGFTFSSYPMSWVRQAPGKGLEWVSAIGGSGGSLPYADSVKGRFTISRDNSKNTLYLQMNSLRAEDTAVYYCARYWPMDIWGQGTLVTVSS
VL: EIVLTQSPGTLSLSPGERATLSCRASQGISSTYLAWYQQKPGQAPRLLMYDASIRATGIPDRFSGSGSGTDFTLTISRLEPEDFAVYYCQQYAYWPLTFGQGTKVEIK
B2: A02_Rd4_6 nM_C03: anti-BCMA antibody (antibody, V domains shown)
VH: EVQLLESGGGLVQPGGSLRLSCAASGFTFSSYAMNWVRQAPGKGLEWVSAISDSGGSTYYADSVKGRFTISRDNSKNTLYLQMNSLRAEDTAVYYCARYWPMDIWGQGTLVTVSS
VL: EIVLTQSPGTLSLSPGERATLSCRASQSVSNLYLAWYQQKPGQAPRLLMYDASIRATGIPDRFSGSGSGTDFTLTISRLEPEDFAVYYCQQYQGWPLTFGQGTKVEIK
B3: A02_Rd4_0.6 nM_C06: anti-BCMA antibody (antibody, V domains shown)
VH: EVQLLESGGGLVQPGGSLRLSCAASGFTFSSYAMNWVRQAPGKGLEWVSAISDSGGSAWYADSVKGRFTISRDNSKNTLYLQMNSLRAEDTAVYYCARYWPMSLWGQGTLVTVSS
VL: EIVLTQSPGTLSLSPGERATLSCRASQSVSVLYLAWYQQKPGQAPRLLMYDASIRATGIPDRFSGSGSGTDFTLTISRLEPEDFAVYYCQQYQRWPLTFGQGTKVEIK
B4: COMBO_Rd4_0.6 nM_C11: anti-BCMA antibody (antibody, V domains shown)
VH: EVQLLESGGGLVQPGGSLRLSCAASGFTFSSYPMSWVRQAPGKGLEWVSAALGSGGSTYYADSVKGRFTISRDNSKNTLYLQMNSLRAEDTAVYYCARYWPMSLWGQGTLVTVSS
VL: EIVLTQSPGTLSLSPGERATLSCRASQSVSVRYLAWYQQKPGQAPRLLMYDASIRATGIPDRFSGSGSGTDFTLTISRLEPEDFAVYYCQQYGSWPITFGQGTKVEIK
B5: A02_Rd4_0.6 nM_C09: anti-BCMA antibody (antibody, V domains shown)
VH: EVQLLESGGGLVQPGGSLRLSCAASGFTFSSYAMNWVRQAPGKGLEWVSAISDSGGSMWYADSVKGRFTISRDNSKNTLYLQMNSLRAEDTAVYYCARYWPMSLWGQGTLVTVSS
VL: EIVLTQSPGTLSLSPGERATLSCRASQSVSSSYLAWYQQKPGQAPRLLMYDASIRATGIPDRFSGSGSGTDFTLTISRLEPEDFAVYYCQQYQSWPLTFGQGTKVEIK
B6: COMBO_Rd4_6 nM_C22: anti-BCMA antibody (antibody, V domains shown)
VH: EVQLLESGGGLVQPGGSLRLSCAASGFTFSSYAMNWVRQAPGKGLEWVSACLDSGGSTYYADSVKGRFTISRDNSKNTLYLQMNSLRAEDTAVYYCARYWPMDSWGQGTLVTVSS
VL: EIVLTQSPGTLSLSPGERATLSCRASQSVSSSYLAWYQQKPGQAPRLLMYDASIRATGIPDRFSGSGSGTDFTLTISRLEPEDFAVYYCQQYQGWPLTFGQGTKVEIK
B7: h25A8-C8_Ep (antibody, V domains shown)
VH: EVQLVESGGGLVKPGGSLRLSCAASGFTFNTYAMNWVRQAPGKGLEWVGRIRSKINNYATYYAESVKGRFTISRDDSKNTLYLQMNSLKTEDTAVYYCVRHETLRSGISWFASWGQGTLVTVSS
VL: QAVVTQEPSLTVSPGGTVTLTCRSSTGAVTTSNYANWVQQKPGQAPRGLIGGTNTRAPGTPARFSGSLLGGKAALTLSGAQPEDEAEYYCVLWYNNHWVFGGGTKLTVL
modifications: left off: another chain or arm of the molecule; a dimerising Fc or GST; small tags and cut ends
B8: h25A8-B8_Ep (antibody, V domains shown)
VH: EVQLVESGGGLVKPGGSLRLSCAASGFTFSTYAMNWVRQAPGKGLEWVGRIRSKINNYATYYAESVKGRFTISRDDSKNTLYLQMNSLKTEDTAVYYCVRHETLRSGISWFASWGQGTLVTVSS
VL: QAVVTQEPSLTVSPGGTVTLTCRSSTGAVTTSNYANWVQQKPGQAPRGLIGGTNTRAPGTPARFSGSLLGGKAALTLSGAQPEDEAEYYCVLWYNNHWVFGGGTKLTVL
modifications: left off: another chain or arm of the molecule; a dimerising Fc or GST; small tags and cut ends
B9: h25A8-B5_Ep (antibody, V domains shown)
VH: EVQLVESGGGLVKPGGSLRLSCAASGFTFSTYAMNWVRQAPGKGLEWVGRIRSKINNYATYYAESVKGRFTISRDDSKNTLYLQMNSLKTEDTAVYYCVRHETLRSGISWFASWGQGTLVTVSS
VL: QAVVTQEPSLTVSPGGTVTLTCRSSTGAVTTSNYANWVQQKPGQAPRGLIGGTNTRAPGTPARFSGSLLGGKAALTLSGAQPEDEAEYYCVLWYNNYWVFGGGTKLTVL
modifications: left off: another chain or arm of the molecule; a dimerising Fc or GST; small tags and cut ends
B10: h2B4-1d_Ep: anti-EpCam/CD3 bispecific, human IgG2dA, anti-CD3 arm h2B4-1d (h2B4) (antibody, V domains shown)
VH: EVQLVESGGGLVQPGGSLRLSCAASGFTFSDYYMTWVRQAPGKGLEWVAFIRNRARGYTSDHNASVKGRFTISRDNAKNSLYLQMNSLRAEDTAVYYCARDRPSYYVLDYWGQGTTVTVSS
VL: DIVMTQSPDSLAVSLGERATINCTSSQSLFNVRSRKNYLAWYQQKPGQPPKLLISWASTRESGVPDRFSGSGSGTDFTLTISSLQAEDVAVYYCKQSYDLFTFGSGTKLEIK
modifications: left off: another chain or arm of the molecule; a dimerising Fc or GST; small tags and cut ends
B11: h2B4-hnpsTK_Ep: anti-EpCam/CD3 bispecific, human IgG2dA, anti-CD3 arm h2B4-hnpsTK (h2B4-VH-hnps VL_TK) (antibody, V domains shown)
VH: EVQLVESGGGLVQPGGSLRLSCAASGFTFSDYYMTWVRQAPGKGLEWVAFIRNRARGYTSDHNPSVKGRFTISRDNAKNSLYLQMNSLRAEDTAVYYCARDRPSYYVLDYWGQGTTVTVSS
VL: DIVMTQSPDSLAVSLGERATINCKSSQSLFNVRSRKNYLAWYQQKPGQPPKLLISWASTRESGVPDRFSGSGSGTDFTLTISSLQAEDVAVYYCKQSYDLFTFGSGTKLEIK
modifications: left off: another chain or arm of the molecule; a dimerising Fc or GST; small tags and cut ends
B12: h2B4-yaesTK_Ep: anti-EpCam/CD3 bispecific, human IgG2dA, anti-CD3 arm h2B4-yaesTK (h2B4-VH-yaes VL_TK) (antibody, V domains shown)
VH: EVQLVESGGGLVQPGGSLRLSCAASGFTFSDYYMTWVRQAPGKGLEWVAFIRNRARGYTSDYAESVKGRFTISRDNAKNSLYLQMNSLRAEDTAVYYCARDRPSYYVLDYWGQGTTVTVSS
VL: DIVMTQSPDSLAVSLGERATINCKSSQSLFNVRSRKNYLAWYQQKPGQPPKLLISWASTRESGVPDRFSGSGSGTDFTLTISSLQAEDVAVYYCKQSYDLFTFGSGTKLEIK
modifications: left off: another chain or arm of the molecule; a dimerising Fc or GST; small tags and cut ends
B13: h2B4-TK_Ep: anti-EpCam/CD3 bispecific, human IgG2dA, anti-CD3 arm h2B4-TK (h2B4-VH-wt VL_TK) (antibody, V domains shown)
VH: EVQLVESGGGLVQPGGSLRLSCAASGFTFSDYYMTWVRQAPGKGLEWVAFIRNRARGYTSDHNASVKGRFTISRDNAKNSLYLQMNSLRAEDTAVYYCARDRPSYYVLDYWGQGTTVTVSS
VL: DIVMTQSPDSLAVSLGERATINCKSSQSLFNVRSRKNYLAWYQQKPGQPPKLLISWASTRESGVPDRFSGSGSGTDFTLTISSLQAEDVAVYYCKQSYDLFTFGSGTKLEIK
modifications: left off: another chain or arm of the molecule; a dimerising Fc or GST; small tags and cut ends

How the values were obtained:
hBCMA (human BCMA) = biological target: T1, hBCMA (human BCMA); assay: Kinetics and affinity of hBCMA/human IgG interactions by SPR (Bio-Rad Proteon XPR36); format: binding; conditions: human BCMA, 37° C.
How it was run: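 Anti-BCMA IgGs were amine-coupled to a GLC chip at 25° C. BCMA analyte was run by kinetic titration at 0.08, 0.4, 2, 10 and 50 nM, with 2-minute associations and 2-hour dissociation, at 37° C. or 25° C. in HBS-T+ (pH 7.4) plus 1 mg/mL BSA. Double-referenced sensorgrams were fit to 1:1 Langmuir with mass transport.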

Cyno BCMA = assay: Kinetics and affinity of cyno BCMA/human IgG interactions by SPR (Bio-Rad Proteon XPR36); format: binding, cynomolgus; conditions: 37° C.
CD3 = CD3 (Homo sapiens, UniProt P07766); assay: Biacore kinetics of anti-CD3 hIgG2dA bispecifics at 37° C.; format: binding
CD3, sequence (P07766 23-126 limits assumed): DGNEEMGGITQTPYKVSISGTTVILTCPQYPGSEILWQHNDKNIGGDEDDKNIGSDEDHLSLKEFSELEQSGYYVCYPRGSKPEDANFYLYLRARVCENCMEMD
CD3, sequence (P04234 22-105 partner limits assumed): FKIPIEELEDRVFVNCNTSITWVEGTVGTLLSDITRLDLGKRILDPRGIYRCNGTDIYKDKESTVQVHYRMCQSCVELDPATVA

Molecule	ka Human (hBCMA (human BCMA))	kd Human (hBCMA (human BCMA))	ka Cyno (Cyno BCMA)	kd Cyno (Cyno BCMA)	Kd (hBCMA (human BCMA))	Kd (Cyno BCMA)	Kd (CD3)	ka (CD3)	kd (CD3)
B1	8.68e+06 M⁻¹ s⁻¹	0.000801 s⁻¹	3.06e+06 M⁻¹ s⁻¹	0.00101 s⁻¹					
B2	1.69e+06 M⁻¹ s⁻¹	0.000126 s⁻¹	1.17e+06 M⁻¹ s⁻¹	0.000185 s⁻¹					
B3	3.49e+06 M⁻¹ s⁻¹	7.37e-05 s⁻¹	1.81e+06 M⁻¹ s⁻¹	0.000105 s⁻¹	0.021 nM	0.058 nM			
B4	5.11e+06 M⁻¹ s⁻¹	0.00106 s⁻¹	2.2e+06 M⁻¹ s⁻¹	0.00423 s⁻¹					
B5	5.5e+06 M⁻¹ s⁻¹	9.75e-05 s⁻¹	2.13e+06 M⁻¹ s⁻¹	0.000174 s⁻¹					
B6	3.03e+06 M⁻¹ s⁻¹	0.000775 s⁻¹	1.7e+06 M⁻¹ s⁻¹	0.00165 s⁻¹					
B7							25.1 nM	1.2e+06 M⁻¹ s⁻¹	0.0301 s⁻¹
B8							18.7 nM	1.19e+06 M⁻¹ s⁻¹	0.0222 s⁻¹
B9							45 nM	1.29e+06 M⁻¹ s⁻¹	0.0581 s⁻¹
B10							40.4 nM	586000 M⁻¹ s⁻¹	0.0237 s⁻¹
B11							31.2 nM	754000 M⁻¹ s⁻¹	0.0235 s⁻¹
B12							54.4 nM	474000 M⁻¹ s⁻¹	0.0258 s⁻¹
B13							31 nM	687000 M⁻¹ s⁻¹	0.0213 s⁻¹
